One substance from patent publication US20070148130A1 can be followed below.

For one data set, the system named is T1, MPRN-12.
T1 sequence: NVKGTEDSG

The subject of another data set is T2, MPRN-20.
T2 sequence: KGTEDSGTT

Take “partially purified native TRRE (pooled Phenyl Sepharose fractions with the highest specific activity, from stimulated THP-1 cells)”: in the data set with MPRN-12, the “TNF-R peptide cleavage activity (FRET assay) of Phenyl Sepharose elution fractions” value was “The leading edge of the protein peak was found to give the highest FRET signal (shown here for MPRN-12)” and the “specific activity in the FRET peptide cleavage assay” value is listed as “a specific activity of 378 FU/µg in the FRET assay using the MPRN-12 substrate”. Besides, the “TNF-R peptide cleavage activity (FRET assay) of Phenyl Sepharose elution fractions” value in the data set on MPRN-20 is on record as “Fractions 4-6 but not 7-10 also cleaved MPRN-20”.
